Experimental data taken from the RNAGym collection of RNA variant scans (doi:10.1021/acssynbio.7b00057).

B1: Pistol ribozyme (parent)
chain: GGGUCGUUGUUCCAUAAUCGCGUGGAUAUGGCACGCAAGUUUCUACCGGGCACCGUAAAUGUCCGACUGGAGCCGUUCGGGCGGCUAUAAACAGACCUCAGGCCCGAAGCGUGGCGGCACCUGCCGCCGGUGGUAAAAAAGAUCGGAAGAGCACACGUCU

Variants of: B1
Assay: aptazyme ON/OFF ratio, guanine; higher = stronger switching; co-transcriptional cleavage with and without guanine

Variant | aptazyme ON/OFF ratio
GGGUCGCACGAACAUAAUCGCGUGGAUAUGGCACGCAAGUUUCUACCGGGCACCGUAAAUGUCCGACUGGAGCCGUUCGGGCGGCUAUAAACAGACCUCAGGCCCGAAGCGUGGCGGCACCUGCCGCCGGUGGUAAAAAAGAUCGGAAGAGCACACGUCU [U7C U8A G9C U10G U11A C12A] | 1.38
GGGUCGCACGAUCAUAAUCGCGUGGAUAUGGCACGCAAGUUUCUACCGGGCACCGUAAAUGUCCGACUGGAGCCGUUCGGGCGGCUAUAAACAGACCUCAGGCCCGAAGCGUGGCGGCACCUGCCGCCGGUGGUAAAAAAGAUCGGAAGAGCACACGUCU [U7C U8A G9C U10G U11A C12U] | 1.08
GGGUCGCACGAGCAUAAUCGCGUGGAUAUGGCACGCAAGUUUCUACCGGGCACCGUAAAUGUCCGACUGGAGCCGUUCGGGCGGCUAUAAACAGACCUCAGGCCCGAAGCGUGGCGGCACCUGCCGCCGGUGGUAAAAAAGAUCGGAAGAGCACACGUCU [U7C U8A G9C U10G U11A C12G] | 1.32
GGGUCGCACCGCGAUAAUCGCGUGGAUAUGGCACGCAAGUUUCUACCGGGCACCGUAAAUGUCCGACUGGAGCCGUUCGGGCGGCUAUAAACAGACCUCAGGCCCGAAGCGUGGCGGCACCUGCCGCCGGUGGUAAAAAAGAUCGGAAGAGCACACGUCU [U7C U8A G9C U10C U11G C13G] | 1.06
GGGUCGCACCGCAAUAAUCGCGUGGAUAUGGCACGCAAGUUUCUACCGGGCACCGUAAAUGUCCGACUGGAGCCGUUCGGGCGGCUAUAAACAGACCUCAGGCCCGAAGCGUGGCGGCACCUGCCGCCGGUGGUAAAAAAGAUCGGAAGAGCACACGUCU [U7C U8A G9C U10C U11G C13A] | 1.1
GGGUCGCACCGCUAUAAUCGCGUGGAUAUGGCACGCAAGUUUCUACCGGGCACCGUAAAUGUCCGACUGGAGCCGUUCGGGCGGCUAUAAACAGACCUCAGGCCCGAAGCGUGGCGGCACCUGCCGCCGGUGGUAAAAAAGAUCGGAAGAGCACACGUCU [U7C U8A G9C U10C U11G C13U] | 1.16
GGGUCGCACGUAUAUAAUCGCGUGGAUAUGGCACGCAAGUUUCUACCGGGCACCGUAAAUGUCCGACUGGAGCCGUUCGGGCGGCUAUAAACAGACCUCAGGCCCGAAGCGUGGCGGCACCUGCCGCCGGUGGUAAAAAAGAUCGGAAGAGCACACGUCU [U7C U8A G9C U10G C12A C13U] | 1.13
GGGUCGCACGUAAAUAAUCGCGUGGAUAUGGCACGCAAGUUUCUACCGGGCACCGUAAAUGUCCGACUGGAGCCGUUCGGGCGGCUAUAAACAGACCUCAGGCCCGAAGCGUGGCGGCACCUGCCGCCGGUGGUAAAAAAGAUCGGAAGAGCACACGUCU [U7C U8A G9C U10G C12A C13A] | 1.23
GGGUCGCACGUAGAUAAUCGCGUGGAUAUGGCACGCAAGUUUCUACCGGGCACCGUAAAUGUCCGACUGGAGCCGUUCGGGCGGCUAUAAACAGACCUCAGGCCCGAAGCGUGGCGGCACCUGCCGCCGGUGGUAAAAAAGAUCGGAAGAGCACACGUCU [U7C U8A G9C U10G C12A C13G] | 1.09
GGGUCGCACCGUCAUAAUCGCGUGGAUAUGGCACGCAAGUUUCUACCGGGCACCGUAAAUGUCCGACUGGAGCCGUUCGGGCGGCUAUAAACAGACCUCAGGCCCGAAGCGUGGCGGCACCUGCCGCCGGUGGUAAAAAAGAUCGGAAGAGCACACGUCU [U7C U8A G9C U10C U11G C12U] | 1.08
GGGUCGCACGAUGAUAAUCGCGUGGAUAUGGCACGCAAGUUUCUACCGGGCACCGUAAAUGUCCGACUGGAGCCGUUCGGGCGGCUAUAAACAGACCUCAGGCCCGAAGCGUGGCGGCACCUGCCGCCGGUGGUAAAAAAGAUCGGAAGAGCACACGUCU [U7C U8A G9C U10G U11A C12U C13G] | 1.13
GGGUCGCACGAUAAUAAUCGCGUGGAUAUGGCACGCAAGUUUCUACCGGGCACCGUAAAUGUCCGACUGGAGCCGUUCGGGCGGCUAUAAACAGACCUCAGGCCCGAAGCGUGGCGGCACCUGCCGCCGGUGGUAAAAAAGAUCGGAAGAGCACACGUCU [U7C U8A G9C U10G U11A C12U C13A] | 1.16
GGGUCGCACGUUUAUAAUCGCGUGGAUAUGGCACGCAAGUUUCUACCGGGCACCGUAAAUGUCCGACUGGAGCCGUUCGGGCGGCUAUAAACAGACCUCAGGCCCGAAGCGUGGCGGCACCUGCCGCCGGUGGUAAAAAAGAUCGGAAGAGCACACGUCU [U7C U8A G9C U10G C12U C13U] | 1.26
GGGUCGCACGUUGAUAAUCGCGUGGAUAUGGCACGCAAGUUUCUACCGGGCACCGUAAAUGUCCGACUGGAGCCGUUCGGGCGGCUAUAAACAGACCUCAGGCCCGAAGCGUGGCGGCACCUGCCGCCGGUGGUAAAAAAGAUCGGAAGAGCACACGUCU [U7C U8A G9C U10G C12U C13G] | 1.17
GGGUCGCACGUUAAUAAUCGCGUGGAUAUGGCACGCAAGUUUCUACCGGGCACCGUAAAUGUCCGACUGGAGCCGUUCGGGCGGCUAUAAACAGACCUCAGGCCCGAAGCGUGGCGGCACCUGCCGCCGGUGGUAAAAAAGAUCGGAAGAGCACACGUCU [U7C U8A G9C U10G C12U C13A] | 1.18
GGGUCGCACGAGAAUAAUCGCGUGGAUAUGGCACGCAAGUUUCUACCGGGCACCGUAAAUGUCCGACUGGAGCCGUUCGGGCGGCUAUAAACAGACCUCAGGCCCGAAGCGUGGCGGCACCUGCCGCCGGUGGUAAAAAAGAUCGGAAGAGCACACGUCU [U7C U8A G9C U10G U11A C12G C13A] | 1.1
GGGUCGCACGAGGAUAAUCGCGUGGAUAUGGCACGCAAGUUUCUACCGGGCACCGUAAAUGUCCGACUGGAGCCGUUCGGGCGGCUAUAAACAGACCUCAGGCCCGAAGCGUGGCGGCACCUGCCGCCGGUGGUAAAAAAGAUCGGAAGAGCACACGUCU [U7C U8A G9C U10G U11A C12G C13G] | 1.19
GGGUCGCACGAGUAUAAUCGCGUGGAUAUGGCACGCAAGUUUCUACCGGGCACCGUAAAUGUCCGACUGGAGCCGUUCGGGCGGCUAUAAACAGACCUCAGGCCCGAAGCGUGGCGGCACCUGCCGCCGGUGGUAAAAAAGAUCGGAAGAGCACACGUCU [U7C U8A G9C U10G U11A C12G C13U] | 1.13
